{"source": "paper PMC4316190", "about": "“Crystal structure of UbiX, an aromatic acid decarboxylase from the psychrophilic bacterium Colwellia psychrerythraea that undergoes FMN-induced conformational changes” (Scientific Reports, 2015)", "key": {"[1]": {"target": "T1, CpsUbiX (Colwellia psychrerythraea, UniProt Q489U8)", "T1 construct": "gene ubiX; full length, residues 1-206, pET-28a(+) NdeI/XhoI, E. coli BL21(DE3), His-tag cleaved with thrombin, dodecamer; FMN site formed by three neighbouring subunits", "assay": "X-ray crystal structure, […] Å", "type": "binding", "conditions": "co-purified from E. coli; crystals at pH 5.8; site at the interface of three subunits"}, "[2]": {"target": "the molecule itself", "assay": "crystal structure; wild type CpsUbiX with bound FMN; space group C222(1), 6 monomers in the asymmetric unit, dodecamer generated by crystallographic symmetry; 200 mM NaCl, 100 mM potassium/sodium phosphate pH 5.8, 11% PEG-8000; 1.9 Å"}, "[3]": {"target": "the molecule itself", "assay": "crystal structure; V47S mutant CpsUbiX without FMN; space group P23, one molecule in the asymmetric unit, dodecamer generated by crystallographic symmetry; 0.1 M tri-sodium citrate pH 5.4, 0.5 M ammonium sulfate, 1.2 M lithium sulfate, 293 K; 1.76 Å"}}, "data": [{"molecule": "Cc1cc2nc3c(=O)[nH]c(=O)nc-3n(C[C@H](O)[C@H](O)[C@H](O)COP(=O)(O)O)c2cc1C", "note": "[FMN]", "values": [{"measurement": "X-ray crystal structure, 1.9 Å", "setting": "[1]", "value": "FMN-bound (wild type) and FMN-free (V47S mutant) CpsUbiXs were deposited in the Protein Data Bank"}]}, {"molecule": "Colwellia psychrerythraea 34H UbiX protein (CpsUbiX), wild type, FMN-bound form (enzyme, UniProt Q489U8 1-206, looked up, UbiX (3-octaprenyl-4-hydroxybenzoate carboxylase) of Colwellia psychrerythraea strain 34H (ATCC BAA-681), UniProt Q489U8, full-length gene, residues 1-206; Cloned between the NdeI and XhoI sites of pET-28a(+); the His-tag was cleaved with thrombin, so a few vector residues probably remain at the N-terminus (surmised); also called 3-octaprenyl-4-hydroxybenzoate carboxylase; wild type CpsUbiX; …) MNNDFNGKITLAITGASGASYAMRLIECLIAANYQLYILCSSAGRIVLDTEVGVKIPSSPDAASKFLTEKYQAKDQQITVFGKEQWFSPVASGSSAPKQMVVCPCSTGTMAAICHGMSDNLIERAADVVIKERGQLILMVRETPFSTLHLQNMLSLSQQGVTIMPASPGFYHKVETIEDLIDFMVGRVLDHLGIEQDIMPRWGYNI", "values": [{"measurement": "stoichiometry N", "setting": "[2]", "value": 12}]}, {"molecule": "V47S mutant CpsUbiX (FMN-free form) (enzyme, Colwellia psychrerythraea 34H, UniProt Q489U8 1-206, looked up, UbiX (3-octaprenyl-4-hydroxybenzoate carboxylase) of Colwellia psychrerythraea strain 34H, UniProt Q489U8, residues 1-206, with V47S; it was expressed and purified as the wild type; also called V47S CpsUbiX; FMN-free CpsUbiX; source: E. coli BL21 (DE3), purified by methods similar to the wild type (Ni-NTA, thrombin cleavage, Superdex-200 SEC); copies: 12) MNNDFNGKITLAITGASGASYAMRLIECLIAANYQLYILCSSAGRISLDTEVGVKIPSSPDAASKFLTEKYQAKDQQITVFGKEQWFSPVASGSSAPKQMVVCPCSTGTMAAICHGMSDNLIERAADVVIKERGQLILMVRETPFSTLHLQNMLSLSQQGVTIMPASPGFYHKVETIEDLIDFMVGRVLDHLGIEQDIMPRWGYNI", "values": [{"measurement": "stoichiometry N", "setting": "[3]", "value": 12}]}]}
